Data: US12162892B2, “CD16a binding agents and uses thereof” (KLEO PHARMACEUTICALS, INC., priority 2018, dated 2024)
Values joined by “and” are separate entries in the source; they are usually repeats but may differ in a detail not shown here. Equal values may be shown once.

Columns and labels:
Assay in all cases: MATE ELISA, interaction with various receptors (Example 55)
Type in all cases: binding
Settings in all cases: Table 11; three replicate values
CD38 = CD38 (Homo sapiens, UniProt P28907)
Method: (§1) Coat ELISA plates (Costar 3922) using Neutravidin (Thermo 31000) at 5 μg/ml in PBS (100 μl/well) for 1 hour at 37° C. Plates were washed 4 times with PBST (PBS, 0.05% Tween 20-200 μl, 1 minute/wash) then blocked using 200 μl 5% bovine serum albumin (BSA, Heat Shock, Fraction V-American Bio AB01088-00100) in PBST for 2 hours at 25° C. with moderate shaking. BSA was removed and plates were washed. […] Protein was removed and plates were washed. MATE labeled antibodies diluted to 1 μg/ml in PBSTB (100 μl/well) were added and incubated for 1 hour at 25° C. with gentle shaking. Wash plates. HRP labeled Mouse Anti-Human IgG, F(ab′)2 (Jackson Immuno Research 209-035-097) diluted 1:2500 in PBSTB was added (100 μl/well) and incubated for 1 hour at 25° C. with gentle shaking. Wash plates. Substrate (Super Signal ELISA Pico Chemiluminescent Substrate-Thermo 37069) was added (100 μl/well) and plates were incubated for 5 minutes at 25° C. with gentle shaking. Luminescence was then measured on the Biotek Synergy H1 microplate reader.
(§2) In some embodiments, “stock” is antibody only, and “control” is an antibody that went through the same procedure except using DMSO only as opposed to a compound. When contacted with targeting moieties such as antibodies in the Examples, compounds, e.g., I-95, I-96, etc. can react through their reactive groups
(§3) [drawing 887] with reactive groups of targeting moieties (e.g., —NH2) to form conjugates by forming amide groups (—C(O)NH—).

CD3ed = CD3ed (Homo sapiens, UniProt P04234+P07766)
Chain of CD3ed (P07766 23-126 limits assumed): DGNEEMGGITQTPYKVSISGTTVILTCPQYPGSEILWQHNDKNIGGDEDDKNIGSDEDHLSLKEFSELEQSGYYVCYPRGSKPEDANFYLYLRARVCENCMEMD
Chain of CD3ed (P04234 22-105 limits assumed): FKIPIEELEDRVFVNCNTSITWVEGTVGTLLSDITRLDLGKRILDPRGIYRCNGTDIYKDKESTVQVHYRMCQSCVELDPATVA
Method: as §1, §2, §3

CD16b = CD16b (Homo sapiens, UniProt O75015)
Chain of CD16b (O75015 17-200): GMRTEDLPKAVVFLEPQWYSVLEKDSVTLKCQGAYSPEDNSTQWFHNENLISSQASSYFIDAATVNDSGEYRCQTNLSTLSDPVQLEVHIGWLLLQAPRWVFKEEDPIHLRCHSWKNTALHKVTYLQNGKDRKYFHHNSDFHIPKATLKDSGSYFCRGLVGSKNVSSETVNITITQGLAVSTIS
Method: as §1, §2, §3

CD16a 158V = test system: CD16a 158V
Method: as §1, §2, §3

CD32b = target: T1, CD32b (Homo sapiens, UniProt P31994)
T1 sequence (P31994 43-310): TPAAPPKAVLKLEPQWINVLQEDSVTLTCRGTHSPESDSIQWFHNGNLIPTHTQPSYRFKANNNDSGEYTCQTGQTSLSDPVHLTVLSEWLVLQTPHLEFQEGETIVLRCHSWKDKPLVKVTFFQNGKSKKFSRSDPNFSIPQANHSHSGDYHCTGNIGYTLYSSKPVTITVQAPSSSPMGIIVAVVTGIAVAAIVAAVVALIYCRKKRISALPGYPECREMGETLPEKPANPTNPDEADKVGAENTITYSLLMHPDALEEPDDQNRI
Method: as §1, §2, §3

CD32a-R167 = test system: CD32a-R167
Method: as §1, §2, §3

CD32a H167 = target: T2, CD32a H167 (Homo sapiens, UniProt P12318)
T2 sequence (P12318 36-218 limits assumed): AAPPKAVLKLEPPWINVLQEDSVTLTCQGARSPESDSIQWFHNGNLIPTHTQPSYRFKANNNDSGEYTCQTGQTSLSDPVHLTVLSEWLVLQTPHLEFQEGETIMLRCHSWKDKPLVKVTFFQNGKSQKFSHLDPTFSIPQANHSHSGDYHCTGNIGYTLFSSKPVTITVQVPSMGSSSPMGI
Method: as §1, §2, §3

CD16a158F = CD16a158F (Homo sapiens, UniProt P08637)
Chain of CD16a158F (P08637 17-208 limits assumed): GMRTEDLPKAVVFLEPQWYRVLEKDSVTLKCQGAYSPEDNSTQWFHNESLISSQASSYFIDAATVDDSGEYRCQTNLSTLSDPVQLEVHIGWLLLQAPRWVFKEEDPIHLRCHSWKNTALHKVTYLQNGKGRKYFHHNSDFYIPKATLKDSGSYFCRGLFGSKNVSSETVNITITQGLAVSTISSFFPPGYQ
Method: as §1, §2, §3

MATE ELISA Results CD38 (CD38): 2893900 and 2774268 and 2739576 | MATE ELISA Results CD3ed (CD3ed): 219 and 257 and 505 | MATE ELISA Results CD16b (CD16b): 3125 and 3086 and 3079 | MATE ELISA Results CD16a 158V (CD16a 158V): 1407940 and 1365053 and 1337882 | MATE ELISA Results CD32b (CD32b): 9479 and 9358 and 9228 | MATE ELISA Results CD32a R157 (CD32a-R167): 125444 and 122409 and 116704 | MATE ELISA Results CD32a H167 (CD32a H167): 485766 and 481839 and 470053 | MATE ELISA Results CD16a 158F (CD16a158F): 82022 and 81780 and 84907
Substance: Daratumumab Control: "'control' is an antibody that went through the same procedure except using DMSO only as opposed to a compound"
